According to patent EP2654803B1, “RADIOLABELED HER2-BINDING PEPTIDE CONJUGATES” (General Electric Company, priority 2010, dated 2021):
Where two headings read alike, the source gives them in different places.

Assays:
SKOV3 tumors [1] = test system: SKOV3 tumors; parameters: species or system female CD-1 nude mice; details: mouse, in vivo
Protocol: Synthesis of the radiolabeled polypeptide was performed using a one-step kit formulation produced in house (Chelakit A+) containing a lyophilized mixture of stannous chloride as a reducing agent for technetium, methylene diphosphonic acid, p-aminobenzoate as a free-radical scavenger and sodium bicarbonate/sodium carbonate (pH 9.2) as buffer. In rapid succession, 20 µL of a 2 µg/µL solution of polypeptide in saline was added to the Chelakit, followed immediately by Na^99mTcO4 (0.8 mCi, 29.6 MBq) in 0.080 mL of saline (0.15M NaCl) obtained from Cardinal Health (Albany, NY). The mixture was agitated once and allowed to sit at ambient temperature for 20 min. Upon completion, the crude radiochemical yield was determined by ITLC (Table 6 below according to ITLC-SG, Biodex, 0.9% NaCl). […]
Mice were given tail-vein injections of ∼1 ug of ^99mTc-labeled polypeptides (∼10 µCi/1 µg). […] Three mice were euthanized at each timepoint and tissues of interest dissected and counted on a Perkin Elmer Wallac Wizard 1480 Gamma Counter. […] Urine from cages was pooled with the bladder and also counted. The remaining tissues were counted and the sum of all tissues plus urine for each animal was summed to provide the total injected dose. The % injected dose for each organ was determined based on this total, and organs were weighed for determination of the % injected dose per gram, (%ID/g). […]

SKOV3 tumors [2] = test system: SKOV3 tumors; parameters: species or system female CD-1 nude mice; details: mouse, in vivo; remark: listed apart in the source
Protocol: In vivo studies were carried out with female CD-1 nude mice (Charles River Labs, Hopkinton, MA) with an age range between 6 and 15 weeks. Mice were housed in a ventilated rack with food and water ad libitum and a standard 12 hour day-night lighting cycle. For xenografts, animals were injected with 100 µl of cells in PBS. Cells were implanted subcutaneously in the right hindquarter. Implantation was performed under isoflurane anesthesia. For SKOV3, between 3 x 10^6 to 4 x 10^6 cells were implanted in each mouse. Under these conditions, useable tumors ([…]) were obtained in 3 to 4 weeks in greater than 80% of animals injected. Mice were given tail-vein injections of ∼1 ug of ^18F-labeled polypeptide (∼4 uCi/1 µg). Mice were placed in filter-paper lined cages until euthanasia. Three mice were euthanized at each timepoint and tissues of interest dissected and counted on a Perkin Elmer Wallac Wizard 1480 Gamma Counter. Data were collected for blood, kidney, liver, spleen, bone and injection site (tail). Urine from cages was pooled with the bladder and also counted. The remaining tissues were counted and the sum of all tissues plus urine for each animal was summed to provide the total injected dose. The percent injected dose for each organ was determined based on this total, and organs were weighed for determination of the percent injected dose per gram, (%ID/g). […]

Row | Substance | kidneys, ID/organ (SKOV3 tumors [1]) | uptake in the liver (SKOV3 tumors [1]) | kidneys, ID/organ (SKOV3 tumors [2]) | uptake in the liver (SKOV3 tumors [2])
1 | Z02891 (SEQ. ID No. 2) cPN216: Z02891 polypeptide conjugated with Mal-cPN216 via a terminal cysteine and labeled with 99mTc | 10.58 ± 2.96 ID/organ | 12 %ID/organ | – | –
2 | Z02891 (SEQ. ID No. 2) 18F-fluorobenzyl oxime: Z02891-ONH2 (Mal-AO on cysteine) reacted with [18F]4-fluorobenzaldehyde | – | – | 0.95±0.07 ID/organ | ca. 1.8 %ID/organ
